B1: Triggering receptor expressed on myeloid cells 2 (Homo sapiens), Q9NZC2 (parent)
chain: MEPLRLLILLFVTELSGAHNTTVFQGVAGQSLQVSCPYDSMKHWGRRKAWCRQLGEKGPCQRVVSTHNLWLLSFLRRWNGSTAITDDTLGGTLTITLRNLQPHDAGLYQCQSLHGSEADTLRKVLVEVLADPLDHRDAGDLWFPGESESFEDAHVEHSISRSLLEGEIPFPPTSILLLLACIFLIKILAASALWAAAWHGQKPGTHPPSELDCGHDPGYQLQTLPGLRDT

Variants of: B1
Conditions: with tyobp_human TYROBP

Question: How did the “effect of a mutation on the interaction” value turn out when MEPLRLLILLFVTELSGAHNTTVFQGVAGQSLQVSCPYDSMKHWGRRKAWCRQLGEKGPCQRVVSTHNLWLLSFLRRWNGSTAITDDTLGGTLTITLRNLQPHDAGLYQCQSLHGCEADTLRKVLVEVLADPLDHRDAGDLWFPGESESFEDAHVEHSISRSLLEGEIPFPPTSILLLLACIFLIKILAASALWAAAWHGQKPGTHPPSELDCGHDPGYQLQTLPGLRDT [S116C] was run?
Answer: Its value is “with no effect”.

Question: MEPLRLLILLFVTELSGAHNTTVFQGVAGQSLQVSCPYDSMKHWGRRKAWCRQLGEKGPCQRVVSMHNLWLLSFLRRWNGSTAITDDTLGGTLTITLRNLQPHDAGLYQCQSLHGSEADTLRKVLVEVLADPLDHRDAGDLWFPGESESFEDAHVEHSISRSLLEGEIPFPPTSILLLLACIFLIKILAASALWAAAWHGQKPGTHPPSELDCGHDPGYQLQTLPGLRDT [T66M] was tested. Which “effect of a mutation on the interaction” value did it give?
Answer: The value was “with no effect”.

Variants of: B1
Conditions: with tyobp_human TYROBP
Remark: another data set of the same source

Question: How did the “effect of a mutation on the interaction” value turn out when MEPLRLLILLFVTELSGAHNTTVFQGVAGQSLQVSCPYDSMKHWGRHKAWCRQLGEKGPCQRVVSTHNLWLLSFLRRWNGSTAITDDTLGGTLTITLRNLQPHDAGLYQCQSLHGSEADTLRKVLVEVLADPLDHRDAGDLWFPGESESFEDAHVEHSISRSLLEGEIPFPPTSILLLLACIFLIKILAASALWAAAWHGQKPGTHPPSELDCGHDPGYQLQTLPGLRDT [R47H] was run?
Answer: The value was “with no effect”.

Question: With MEPLRLLILLFVTELSGAHNTTVFQGVAGQSLQVSCPYDSMKHWGRRKAWCRQLGEKGPCQRVVSMHNLWLLSFLRRWNGSTAITDDTLGGTLTITLRNLQPHDAGLYQCQSLHGSEADTLRKVLVEVLADPLDHRDAGDLWFPGESESFEDAHVEHSISRSLLEGEIPFPPTSILLLLACIFLIKILAASALWAAAWHGQKPGTHPPSELDCGHDPGYQLQTLPGLRDT [T66M] as the variant, how does the “effect of a mutation on the interaction” value read?
Answer: The value was “increasing interaction strength”.
